Molecular target: AGT of all performed ITC measurements (wild type and AGT mutants of Table S1)
Test: ITC; 25–46 µM AGT as sample in the cell, 250–460 µM Pex5p(C) as titration ligand, 27 injections of 10 µl; 25°C; 100 mM HEPES pH 7.5, 150 mM NaCl, 2 mM ß-mercaptoethanol

In the case of “C-terminal cargo-binding segment of human Pex5p (residues 315-639) (from UniProt P50542 315-639) (domain or fragment)”, the stoichiometry N is reported as 1.02.

Source: article PMC3328432, “Molecular Requirements for Peroxisomal Targeting of Alanine-Glyoxylate Aminotransferase as an Essential Determinant in Primary Hyperoxaluria Type 1” (PLoS Biology, 2012)
